Measured values: article PMC11789342, “5-Aminolevulinic acid activates the MdWRKY71-MdMADS1 module to enhance anthocyanin biosynthesis in apple”

B1: ProMdMADS1 W-box1 mutant probe (dsDNA)
DNA 1: ACTTTGTGGCTTTAGCATTTTGAAGA
DNA 2: TCTTCAAAATGCTAAAGCCACAAAGT
B2: ProMdDFR W-box probe (dsDNA)
DNA 1: TGGGACTCTTCATTGACTCTCCGCCACATC
DNA 2: GATGTGGCGGAGAGTCAATGAAGAGTCCCA
B3: ProMdANS W-box probe (dsDNA)
DNA 1: ATCCCAGATGTGTTGACTGTTCATGCTCAG
DNA 2: CTGAGCATGAACAGTCAACACATCTGGGAT
B4: ProMdMADS1 W-box2 mutant probe (dsDNA)
DNA 1: ATTTACTATTTTTAGCATTACAATTT
DNA 2: AAATTGTAATGCTAAAAATAGTAAAT
B5: ProMdMADS1 W-box3 mutant probe (dsDNA)
DNA 1: CCTGAGGTTATTAACGCCAAAAGAAAA
DNA 2: TTTTCTTTTGGCGTTAATAACCTCAGG

Target: MdWRKY71 (Malus x domestica, UniProt A0A7S5AU16 1-327)
Sequence (A0A7S5AU16 entry or part of it): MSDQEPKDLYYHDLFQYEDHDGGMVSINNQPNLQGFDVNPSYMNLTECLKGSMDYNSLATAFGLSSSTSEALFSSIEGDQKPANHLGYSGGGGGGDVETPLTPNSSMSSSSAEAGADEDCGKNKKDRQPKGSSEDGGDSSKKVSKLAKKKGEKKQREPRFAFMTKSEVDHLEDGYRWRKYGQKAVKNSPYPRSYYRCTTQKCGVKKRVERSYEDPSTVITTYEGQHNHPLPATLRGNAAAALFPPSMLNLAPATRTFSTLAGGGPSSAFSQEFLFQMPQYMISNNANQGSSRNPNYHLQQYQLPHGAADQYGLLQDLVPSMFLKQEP
Experiment: EMSA; LightShift Chemiluminescent EMSA Kit per manufacturer; buffer, salt, pH and temperature not stated
Conditions: protein: recombinant; tags: His (pET32a); label: biotin

| Binder | binding result |
| --- | --- |
| B1 | no binding |
| B2 | binds |
| B3 | binds |
| B4 | no binding |
| B5 | no binding |
